Measured values reported in article PMC3298473, “Effects of partner proteins on BCA2 RING ligase activity” (BMC Cancer, 2012).

What was measured:
[1] = target: T1, Recombinant Flag-BCA2 RING mutant (C228/231A), purified (human, UniProt Q9Y4L5 1-304, C228/231A | C228/231A); test: pull-down; purified recombinant Flag-BCA2 (wild type or mutants) incubated with sepharose-immobilised GST control or GST-14-3-3σ from bacterial cell lysates; immunoblot; conditions: both partners purified
T1 construct: BCA2, a 304 amino acid protein, with C228A and C231A in the RING domain (ligase-dead); also called RING mt; source: recombinant, purified

[2] = target: T2, Recombinant Flag-BCA2, wild type, purified (human, UniProt Q9Y4L5 1-304); test: as above; conditions: both partners purified
T2 construct: BCA2, a 304 amino acid protein; also called Purified recombinant wild-type BCA2; source: recombinant, purified
T2 sequence (Q9Y4L5 whole entry): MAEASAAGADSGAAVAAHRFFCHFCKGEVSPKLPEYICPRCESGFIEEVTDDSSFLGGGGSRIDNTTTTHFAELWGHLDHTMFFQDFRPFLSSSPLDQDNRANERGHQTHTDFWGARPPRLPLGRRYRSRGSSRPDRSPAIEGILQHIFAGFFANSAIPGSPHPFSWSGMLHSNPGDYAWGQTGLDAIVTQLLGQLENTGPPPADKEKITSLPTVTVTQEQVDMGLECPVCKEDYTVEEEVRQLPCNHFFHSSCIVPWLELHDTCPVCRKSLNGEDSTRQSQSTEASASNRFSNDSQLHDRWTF

T1 sequence (Q9Y4L5 other isoform, or with tags, fused parts or gaps C228/231A | C228/231A | C228/231A | C228/231A | mutant): as the sequence (Q9Y4L5 whole entry) above, with C228A, C231A counted along it

binding result [1]: binds | binding result [2]: binds
B1: GST-tagged 14-3-3σ (natural protein, human, UniProt P31947 1-248, looked up)
chain: MERASLIQKAKLAEQAERYEDMAAFMKGAVEKGEELSCEERNLLSVAYKNVVGGQRAAWRVLSSIEQKSNEEGSEEKGPEVREYREKVETELQGVCDTVLGLLDSHLIKEAGDAESRVFYLKMKGDYYRYLAEVATGDDKKRIIDSARSAYQEAMDISKKEMPPTNPIRLGLALNFSVFHYEIANSPEEAISLAKTTFDEAMADLHTLSEDSYKDSTLIMQLLRDNLTLWTADNAGEEGGEAPQEPQS
notes: 14-3-3σ; the GST construct is not described in the methods; also called GST-14-3-3σ; source: bacterial cell lysates, immobilised on sepharose
